Molecular target: 7ZFP Active-A (artificial (Sp1-derived zinc fingers))
Assay: EMSA; EMSA: 25 mM HEPES, 100 mM KCl, 1 mM EDTA, 10 mM MgCl2, 0.1% NP40, 1% glycerol, 1 mM DTT; 30 min on ice; pH not stated
Details: protein: recombinant; tags: C-terminal 6xHis; label: biotin; blunt

Chain of 7ZFP Active-A (artificial (Sp1-derived zinc fingers)) (chain, as listed by the source): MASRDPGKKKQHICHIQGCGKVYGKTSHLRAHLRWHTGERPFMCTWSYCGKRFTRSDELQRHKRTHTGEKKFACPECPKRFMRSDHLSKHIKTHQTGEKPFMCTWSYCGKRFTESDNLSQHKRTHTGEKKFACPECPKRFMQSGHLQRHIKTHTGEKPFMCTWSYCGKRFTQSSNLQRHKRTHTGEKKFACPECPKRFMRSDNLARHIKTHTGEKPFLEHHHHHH

B1: Probe-1 (p16 promoter) (dsDNA)
DNA 1: AAGGTTGTATCGCGGAGGAAGGAAACGGGGCGGGGGCGGATTTCT
DNA 2: AGAAATCCGCCCCCGCCCCGTTTCCTTCCTCCGCGATACAACCTT
B1: binds.
